The chains are these.
B1: target 1 del2,del9 (mixed)
RNA 1: CACCCGUGCAAAAAUGCAGGGGUCUAAAACUGAGCGGAUAACCUCUCUAUGG
RNA 2: GGGAAUGGAUCCACAUCUACGAAUUCGUACCAUAGAGAGGUUUCCGCUACCGAGAUCGGAAGAGCACACGU
B2: target 1 insU 3' of 17,insA 3' of 8 (mixed)
RNA 1: CACCCGUGCAAAAAUGCAGGGGUCUAAAACUGAGCGGAUAACCUCUCUAUGG
RNA 2: GGGAAUGGAUCCACAUCUACGAAUUCGUACCAUAGUAGAGGUUAUACCGCUCACCGAGAUCGGAAGAGCACACGU
B3: target 1 insU 3' of 20 (mixed)
RNA 1: CACCCGUGCAAAAAUGCAGGGGUCUAAAACUGAGCGGAUAACCUCUCUAUGG
RNA 2: GGGAAUGGAUCCACAUCUACGAAUUCGUACCAUUAGAGAGGUUAUCCGCUCACCGAGAUCGGAAGAGCACACGU
B4: target 1 insA 3' of 17,insG 3' of 11 (mixed)
RNA 1: CACCCGUGCAAAAAUGCAGGGGUCUAAAACUGAGCGGAUAACCUCUCUAUGG
RNA 2: GGGAAUGGAUCCACAUCUACGAAUUCGUACCAUAGAAGAGGUGUAUCCGCUCACCGAGAUCGGAAGAGCACACGU
B5: target 1 C7U,A20U (mixed)
RNA 1: CACCCGUGCAAAAAUGCAGGGGUCUAAAACUGAGCGGAUAACCUCUCUAUGG
RNA 2: GGGAAUGGAUCCACAUCUACGAAUUCGUACCUUAGAGAGGUUAUUCGCUCACCGAGAUCGGAAGAGCACACGU
B6: target 1 complement block 3-13 (mixed)
RNA 1: CACCCGUGCAAAAAUGCAGGGGUCUAAAACUGAGCGGAUAACCUCUCUAUGG
RNA 2: GGGAAUGGAUCCACAUCUACGAAUUCGUACCAUAGAGACCAAUAGGCGACACCGAGAUCGGAAGAGCACACGU
B7: target 1 C2U,U8A (mixed)
RNA 1: CACCCGUGCAAAAAUGCAGGGGUCUAAAACUGAGCGGAUAACCUCUCUAUGG
RNA 2: GGGAAUGGAUCCACAUCUACGAAUUCGUACCAUAGAGAGGUUAACCGCUUACCGAGAUCGGAAGAGCACACGU
B8: target 1 insG 3' of 14,insA 3' of 5 (mixed)
RNA 1: CACCCGUGCAAAAAUGCAGGGGUCUAAAACUGAGCGGAUAACCUCUCUAUGG
RNA 2: GGGAAUGGAUCCACAUCUACGAAUUCGUACCAUAGAGAGGGUUAUCCGACUCACCGAGAUCGGAAGAGCACACGU
B9: target 1 insG 3' of 22,insG 3' of 3 (mixed)
RNA 1: CACCCGUGCAAAAAUGCAGGGGUCUAAAACUGAGCGGAUAACCUCUCUAUGG
RNA 2: GGGAAUGGAUCCACAUCUACGAAUUCGUACGCAUAGAGAGGUUAUCCGCUGCACCGAGAUCGGAAGAGCACACGU
B10: target 1 insC 3' of 22,insU 3' of 14 (mixed)
RNA 1: CACCCGUGCAAAAAUGCAGGGGUCUAAAACUGAGCGGAUAACCUCUCUAUGG
RNA 2: GGGAAUGGAUCCACAUCUACGAAUUCGUACCCAUAGAGAUGGUUAUCCGCUCACCGAGAUCGGAAGAGCACACGU
B11: target 1 insA 3' of 21,insU 3' of 15 (mixed)
RNA 1: CACCCGUGCAAAAAUGCAGGGGUCUAAAACUGAGCGGAUAACCUCUCUAUGG
RNA 2: GGGAAUGGAUCCACAUCUACGAAUUCGUACCAAUAGAGUAGGUUAUCCGCUCACCGAGAUCGGAAGAGCACACGU
B12: target 1 G15U,C21U (mixed)
RNA 1: CACCCGUGCAAAAAUGCAGGGGUCUAAAACUGAGCGGAUAACCUCUCUAUGG
RNA 2: GGGAAUGGAUCCACAUCUACGAAUUCGUACUAUAGAUAGGUUAUCCGCUCACCGAGAUCGGAAGAGCACACGU
B13: target 1 C2A,G5A (mixed)
RNA 1: CACCCGUGCAAAAAUGCAGGGGUCUAAAACUGAGCGGAUAACCUCUCUAUGG
RNA 2: GGGAAUGGAUCCACAUCUACGAAUUCGUACCAUAGAGAGGUUAUCCACUAACCGAGAUCGGAAGAGCACACGU
B14: target 1 insU 3' of 21,insU 3' of 2 (mixed)
RNA 1: CACCCGUGCAAAAAUGCAGGGGUCUAAAACUGAGCGGAUAACCUCUCUAUGG
RNA 2: GGGAAUGGAUCCACAUCUACGAAUUCGUACCUAUAGAGAGGUUAUCCGCUCUACCGAGAUCGGAAGAGCACACGU
B15: target 1 U3A,C6G (mixed)
RNA 1: CACCCGUGCAAAAAUGCAGGGGUCUAAAACUGAGCGGAUAACCUCUCUAUGG
RNA 2: GGGAAUGGAUCCACAUCUACGAAUUCGUACCAUAGAGAGGUUAUCGGCACACCGAGAUCGGAAGAGCACACGU
B16: target 1 insC 3' of 20,insU 3' of 17 (mixed)
RNA 1: CACCCGUGCAAAAAUGCAGGGGUCUAAAACUGAGCGGAUAACCUCUCUAUGG
RNA 2: GGGAAUGGAUCCACAUCUACGAAUUCGUACCACUAGUAGAGGUUAUCCGCUCACCGAGAUCGGAAGAGCACACGU
B17: target 1 C6U,A14C (mixed)
RNA 1: CACCCGUGCAAAAAUGCAGGGGUCUAAAACUGAGCGGAUAACCUCUCUAUGG
RNA 2: GGGAAUGGAUCCACAUCUACGAAUUCGUACCAUAGAGCGGUUAUCUGCUCACCGAGAUCGGAAGAGCACACGU
B18: target 1 insG 3' of 18,insA 3' of 3 (mixed)
RNA 1: CACCCGUGCAAAAAUGCAGGGGUCUAAAACUGAGCGGAUAACCUCUCUAUGG
RNA 2: GGGAAUGGAUCCACAUCUACGAAUUCGUACCAUAGGAGAGGUUAUCCGCUACACCGAGAUCGGAAGAGCACACGU
B19: target 1 insU 3' of 14 (mixed)
RNA 1: CACCCGUGCAAAAAUGCAGGGGUCUAAAACUGAGCGGAUAACCUCUCUAUGG
RNA 2: GGGAAUGGAUCCACAUCUACGAAUUCGUACCAUAGAGAUGGUUAUCCGCUCACCGAGAUCGGAAGAGCACACGU
B20: target 1 del7,del11 (mixed)
RNA 1: CACCCGUGCAAAAAUGCAGGGGUCUAAAACUGAGCGGAUAACCUCUCUAUGG
RNA 2: GGGAAUGGAUCCACAUCUACGAAUUCGUACCAUAGAGAGGUAUCGCUCACCGAGAUCGGAAGAGCACACGU
B21: target 1 G13U,A14C (mixed)
RNA 1: CACCCGUGCAAAAAUGCAGGGGUCUAAAACUGAGCGGAUAACCUCUCUAUGG
RNA 2: GGGAAUGGAUCCACAUCUACGAAUUCGUACCAUAGAGCUGUUAUCCGCUCACCGAGAUCGGAAGAGCACACGU
B22: target 1 U8A,U11G (mixed)
RNA 1: CACCCGUGCAAAAAUGCAGGGGUCUAAAACUGAGCGGAUAACCUCUCUAUGG
RNA 2: GGGAAUGGAUCCACAUCUACGAAUUCGUACCAUAGAGAGGGUAACCGCUCACCGAGAUCGGAAGAGCACACGU
B23: target 1 C4A,G5C (mixed)
RNA 1: CACCCGUGCAAAAAUGCAGGGGUCUAAAACUGAGCGGAUAACCUCUCUAUGG
RNA 2: GGGAAUGGAUCCACAUCUACGAAUUCGUACCAUAGAGAGGUUAUCCCAUCACCGAGAUCGGAAGAGCACACGU
B24: target 1 U3C,U8C (mixed)
RNA 1: CACCCGUGCAAAAAUGCAGGGGUCUAAAACUGAGCGGAUAACCUCUCUAUGG
RNA 2: GGGAAUGGAUCCACAUCUACGAAUUCGUACCAUAGAGAGGUUACCCGCCCACCGAGAUCGGAAGAGCACACGU
B25: target 1 insA 3' of 13,insA 3' of 10 (mixed)
RNA 1: CACCCGUGCAAAAAUGCAGGGGUCUAAAACUGAGCGGAUAACCUCUCUAUGG
RNA 2: GGGAAUGGAUCCACAUCUACGAAUUCGUACCAUAGAGAGAGUUAAUCCGCUCACCGAGAUCGGAAGAGCACACGU
B26: target 1 insA 3' of 10,insC 3' of 9 (mixed)
RNA 1: CACCCGUGCAAAAAUGCAGGGGUCUAAAACUGAGCGGAUAACCUCUCUAUGG
RNA 2: GGGAAUGGAUCCACAUCUACGAAUUCGUACCAUAGAGAGGUUAACUCCGCUCACCGAGAUCGGAAGAGCACACGU
B27: target 1 insC 3' of 12,insC 3' of 3 (mixed)
RNA 1: CACCCGUGCAAAAAUGCAGGGGUCUAAAACUGAGCGGAUAACCUCUCUAUGG
RNA 2: GGGAAUGGAUCCACAUCUACGAAUUCGUACCAUAGAGAGGCUUAUCCGCUCCACCGAGAUCGGAAGAGCACACGU

The values that follow come from article PMC10786891, “Massively parallel profiling of RNA-targeting CRISPR-Cas13d”.

What is called Kd is the concentration at which binding is half-saturated.

This data set has as its target T1, EsCas13d, nuclease-dead (Eubacterium siraeum, UniProt B0MS50, R295A;H300A;R849A;H854A).
T1 sequence: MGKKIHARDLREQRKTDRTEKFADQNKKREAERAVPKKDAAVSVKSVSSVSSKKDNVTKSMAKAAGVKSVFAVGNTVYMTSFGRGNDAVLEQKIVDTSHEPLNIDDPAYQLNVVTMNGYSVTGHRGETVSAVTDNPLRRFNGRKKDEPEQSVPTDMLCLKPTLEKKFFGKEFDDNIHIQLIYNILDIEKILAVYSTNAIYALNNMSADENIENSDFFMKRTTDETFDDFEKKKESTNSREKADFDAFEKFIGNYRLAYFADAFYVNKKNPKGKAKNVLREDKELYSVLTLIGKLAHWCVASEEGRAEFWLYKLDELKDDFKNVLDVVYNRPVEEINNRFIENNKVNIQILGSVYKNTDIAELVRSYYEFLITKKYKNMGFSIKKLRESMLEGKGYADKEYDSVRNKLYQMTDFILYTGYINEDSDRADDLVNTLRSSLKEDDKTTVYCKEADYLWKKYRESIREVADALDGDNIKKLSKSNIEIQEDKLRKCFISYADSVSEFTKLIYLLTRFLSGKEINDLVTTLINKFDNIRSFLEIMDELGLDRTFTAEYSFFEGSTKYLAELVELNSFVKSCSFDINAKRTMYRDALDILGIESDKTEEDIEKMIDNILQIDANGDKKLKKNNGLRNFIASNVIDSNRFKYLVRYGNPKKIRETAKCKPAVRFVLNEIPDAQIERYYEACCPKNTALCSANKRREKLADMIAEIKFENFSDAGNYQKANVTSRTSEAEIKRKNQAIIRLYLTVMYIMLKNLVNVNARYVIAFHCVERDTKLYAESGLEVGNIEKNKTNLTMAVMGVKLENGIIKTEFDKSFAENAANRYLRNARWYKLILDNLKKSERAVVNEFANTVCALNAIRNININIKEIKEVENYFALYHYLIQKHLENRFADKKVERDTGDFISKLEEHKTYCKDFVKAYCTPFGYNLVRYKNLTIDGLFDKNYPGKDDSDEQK
Description: crRNA (strand 1, pre-loaded); Mg2+; 40 mM Tris-HCl pH 7.5, 150 mM NaCl, 6 mM MgCl2, 1 mM DTT, 0.1% Tween-20, 0.2 mg/ml BSA; 25 C; 10 min per concentration, then washed. The following applies: tags: His6-TwinStrep-SUMO cleaved; N-terminal SNAP kept (SNAP-Surface 488); label: 3' end held by stalled T7 RNA polymerase.
For the molecule B1, binding was characterised by a dissociation constant (Kd) of 63 ± 9 nM.
In the case of B2, the Kd is 24.6 ± 1.5 nM.
In turn, B3 returned a Kd of 10.6 ± 0.6 nM.
Next, B4: 86 ± 21 nM; B5: 41.2 ± 3.4 nM.
Turning to B6, the Kd is 62 ± 7 nM.
In the case of B7, the Kd turned out to be 21.2 ± 1 nM.
Take B8: the Kd turned out to be 8.1 ± 0.4 nM.
Under B9 stands 21.5 ± 2.1 nM.
The molecule B10 yielded a dissociation constant Kd of 40 ± 10 nM.
As for B11, the Kd was found to be 31.6 ± 3.5 nM.
B12 showed a Kd of 6.4 ± 0.5 nM.
Molecule B13 registered a Kd of 31.6 ± 3.2 nM.
Under B14 stands 38 ± 4 nM; under B15, 5.27 ± 0.15 nM.
B16 gave a Kd of 16.9 ± 2.2 nM.
Under B17 stands 20 ± 1 nM; under B18, 49.3 ± 3.1 nM.
Regarding B19, the Kd amounted to 38 ± 4 nM.
Turning to B20, binding was put at a Kd of 15.4 ± 0.5 nM.
The molecule B21 gave a Kd of 10.8 ± 0.7 nM.
B22 gave a Kd of 12.7 ± 0.5 nM.
Next, B23: 20.9 ± 1.7 nM; B24: 13.4 ± 0.6 nM.
Under B25 stands 4.3 ± 0.5 nM; under B26, 14.4 ± 0.5 nM; under B27, 12.3 ± 2.6 nM.
